Measured values reported in patent US11648295B2, “Methods of treating diseases resulting from a maladapted stress response” (Cortene Inc., priority 2016, dated 2023).
No end group written: not given here.

Tests used:
[1] = target: CRFR1 (Homo sapiens, UniProt P34998); experiment: EC50, nmol (% of Emax) | CRFR1
Text: (§1) Table printed on a drawing sheet, FIGURE 10
(§2) Title: Pharmacokinetic Parameters
Head of the field: EC50, nmol (% of Emax) | CRFR1
(§3) Footnotes: FIGURE 10: Effect of maximum or steady state plasma concentrations (Cmax or Css) of various CRFR2 agonists (CT38, SCP or Ucn2), dosed by subcutaneous bolus (triangles) or intravenous infusion (circles), on the maximum heart rate (HRmax) in healthy subjects (solid lines) or stable congestive heart failure patients (dashed lines). The table provides comparative pharmacokinetic parameters for the CRFR2 agonists.
(§4) That is, for strongly potent CRFR2 agonists and relative intermediate plasma concentrations, the loss of the ability to induce a heart rate increase via continuous dosing, was driven by the duration of dosing, and appeared to occur with different selective CRFR2 agonists (e.g., Ucn2, stresscopin), irrespective of the condition of the human subject.
(§5) First copying reader's note: Each EC50 cell holds the EC50 in nmol with the % of Emax in brackets after it.
Where the first naming reader finds the target: head: EC50, nmol (% of Emax) | CRFR1

[2] = target: T1, CRFR2 (Homo sapiens, UniProt Q13324); experiment: EC50, nmol (% of Emax) | CRFR2
T1 sequence (Q13324 whole entry, looked up): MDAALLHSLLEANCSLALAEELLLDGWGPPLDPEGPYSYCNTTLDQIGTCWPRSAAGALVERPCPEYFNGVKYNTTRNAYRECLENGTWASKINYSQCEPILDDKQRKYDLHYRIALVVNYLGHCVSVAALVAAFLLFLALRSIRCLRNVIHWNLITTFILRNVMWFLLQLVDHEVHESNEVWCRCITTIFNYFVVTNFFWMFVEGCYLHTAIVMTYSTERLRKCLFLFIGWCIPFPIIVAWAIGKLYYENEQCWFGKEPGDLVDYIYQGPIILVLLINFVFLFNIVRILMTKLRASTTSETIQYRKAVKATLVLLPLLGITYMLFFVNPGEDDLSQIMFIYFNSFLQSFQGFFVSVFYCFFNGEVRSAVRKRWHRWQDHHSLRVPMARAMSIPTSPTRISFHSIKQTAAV
Text: as §1, §2
Head of the field: EC50, nmol (% of Emax) | CRFR2
as §3, §4, §5
Where the first naming reader finds the target: head: EC50, nmol (% of Emax) | CRFR2

[3] = target: T1, CRFR2; experiment: in vitro potency / binding potential for CRFR2 (table of FIG. 10); format: biochemical
[4] = target: T2, CRFR1 (Homo sapiens, UniProt P34998); experiment: in vitro binding potential for CRFR1 (table of FIG. 10); format: biochemical
T2 sequence (P34998 24-415): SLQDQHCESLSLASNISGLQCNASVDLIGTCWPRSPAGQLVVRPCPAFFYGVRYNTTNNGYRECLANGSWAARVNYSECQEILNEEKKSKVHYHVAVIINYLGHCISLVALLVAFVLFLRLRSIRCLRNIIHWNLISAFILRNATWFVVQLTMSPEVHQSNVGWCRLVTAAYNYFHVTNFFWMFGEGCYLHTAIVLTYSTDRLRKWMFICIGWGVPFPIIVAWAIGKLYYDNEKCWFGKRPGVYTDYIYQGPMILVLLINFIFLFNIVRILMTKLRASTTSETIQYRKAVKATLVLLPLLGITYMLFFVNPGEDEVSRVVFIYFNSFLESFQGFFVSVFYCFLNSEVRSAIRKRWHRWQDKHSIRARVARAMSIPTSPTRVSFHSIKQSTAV

[5] = system: stable congestive heart failure patients; conditions: escalating i.v. infusion over 3 hours; cited from earlier work

Ucn3: endogenous CRFR2-selective agonist peptide, used as a proxy for SCP (FTLSLDVPTNIMNLLFNIAKAKNLRAQAAANAHLMAQI) [listing 1 of 2 here]
EC50, nmol (% of Emax) | CRFR1 [1]: > 1000 (10) nmol (% of Emax)
EC50, nmol (% of Emax) | CRFR2 [2]: > 100 (60) nmol (% of Emax)

Ucn3: endogenous CRFR2-selective agonist peptide, used as a proxy for SCP (FTLSLDVPTNIMNLLFNIAKAKNLRAQAAANAHLMAQI) [listing 2 of 2 here]
in vitro binding potential for CRFR2 [3]: strong binding potential for CRFR2 (maximal, at low concentrations)
in vitro binding potential for CRFR1 [4]: weak binding potential for CRFR1 (minimal, at moderate concentrations)

stresscopin (FTLSLDVPTNIMNLLFNIAKAKNLRAQAAANAHLMAQI; ends and bridges not checked; UniProt Q969E3 120-157, looked up)
pattern of effect on heart rate versus Ucn2 [5]: very similar
